For assay [1], the target named is cipko_arath CIPK24 (UniProt Q9LDI3).
The target is the same in assay [2]. The source holds these as a separate data set.

2 substances from IntAct's records for PubMed 19448033 can be followed below.

Sequence of cipko_arath CIPK24 (Q9LDI3 whole entry): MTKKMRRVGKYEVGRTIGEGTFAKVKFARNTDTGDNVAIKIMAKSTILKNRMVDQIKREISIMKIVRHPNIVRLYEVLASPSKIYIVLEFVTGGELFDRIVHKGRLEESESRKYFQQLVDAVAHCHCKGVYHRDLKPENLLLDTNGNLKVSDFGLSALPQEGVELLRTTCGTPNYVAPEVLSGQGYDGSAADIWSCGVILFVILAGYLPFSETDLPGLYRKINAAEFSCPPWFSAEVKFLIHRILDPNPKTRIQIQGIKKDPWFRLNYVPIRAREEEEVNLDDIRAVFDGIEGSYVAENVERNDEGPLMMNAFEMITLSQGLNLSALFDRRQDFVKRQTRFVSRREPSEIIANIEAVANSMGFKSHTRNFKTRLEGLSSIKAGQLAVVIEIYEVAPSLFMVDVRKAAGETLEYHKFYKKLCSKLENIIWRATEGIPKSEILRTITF
Sequence of Calcineurin B-like protein 10 (Arabidopsis thaliana (Mouse-ear cress)), Q7FRS8-2 S237A (Q7FRS8 other isoform, or with tags, fused parts or gaps S237A): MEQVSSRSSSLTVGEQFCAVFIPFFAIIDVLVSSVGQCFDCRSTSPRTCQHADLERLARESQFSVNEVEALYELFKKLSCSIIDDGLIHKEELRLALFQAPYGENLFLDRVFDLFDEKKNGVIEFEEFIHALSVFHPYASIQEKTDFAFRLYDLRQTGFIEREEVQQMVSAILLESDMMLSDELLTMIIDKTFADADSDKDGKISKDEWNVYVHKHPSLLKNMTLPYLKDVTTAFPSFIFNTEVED
Sequence of Calcineurin B-like protein 10 (Arabidopsis thaliana (Mouse-ear cress)), Q7FRS8-2 S237D (Q7FRS8 other isoform, or with tags, fused parts or gaps S237D): as the sequence (Q7FRS8 other isoform, or with tags, fused parts or gaps S237A) above

As to “Calcineurin B-like protein 10 (Arabidopsis thaliana (Mouse-ear cress)), Q7FRS8-2 S237A”, the “effect of a mutation on the interaction” value with cipko_arath CIPK24 [1] was “disrupting interaction”; with cipko_arath CIPK24 [2], “decreasing interaction”. Take “Calcineurin B-like protein 10 (Arabidopsis thaliana (Mouse-ear cress)), Q7FRS8-2 S237D”: the “effect of a mutation on the interaction” value with cipko_arath CIPK24 [2] is recorded as “increasing interaction”.
